Data on 9 proteins can be found in patent US20230279055A1 (University of Washington, published 2023).

Series [1] deals with the molecule itself. Nature of the series: SEC-MALS, oligomeric state of the dominant species (D = dimer). Here is the method: (§1) FIG. 14. […] Samples were prepared in 20 mM Tris·HCl, 150 mM sodium chloride, pH 7.5.
(§2) To ascertain the oligomerisation state of dIG proteins, SEC-MALS was performed in a Dawn Helios™ II apparatus (Wyatt Technologies) coupled to a SEC Superdex™ 75 Increase 10/300 column. The column was equilibrated with PBS or buffer B at 25° C. and operated at a flow rate of 0.5 mL/min. A total volume of 100-165 μL of protein solution at 1-3.0 mg/mL was employed for each sample. Data processing and analysis proceeded with Astra 7 software (Wyatt Technologies), for which a typical dn/dc value for proteins (0.185 mL/g) was assumed.
A general note: Size exclusion chromatography separates by hydrodynamic size, large species first.

Series [2] concerns the molecule itself. Nature of the series: SEC-MALS, self-association, PBS buffer. The procedure:
FIG. 13. […] All experiments were carried out with PBS buffer.
as §2

Series [3] concerns the molecule itself. Nature of the series: SEC-MALS, oligomeric state of the dominant species (M = monomer, D = dimer). Here is the method: FIG. 12. Biochemical characterization of the dIG8 design. a, Far-ultraviolet circular dichroism spectra (25° C., 95° C.). b, Thermal denaturation monitored at 220 nm by circular dichroism. The design denatures at temperatures above 95° C. c, SEC-MALS analysis. The protein is monodispersed and has an estimated molecular weight of 16.6 kDa, which lies between that corresponding to the theoretical monomer (10.3 kDa) and dimer (20.6 kDa). The protein includes the thrombin cleavage site and the hexa-histidine purification tag, which adds 2.3 kDa to the design. d, Chemical denaturation with guanidine hydrochloride monitored at 220 nm by circular dichroism. […] All experiments were carried out with PBS buffer.
as §1, §2

Series [4] deals with the molecule itself. Nature of the series: SEC-MALS, self-association.

B1: dIG7 (other)
chain: RMEVRVSNGRVEIENKSSQPGRVEVRFNGKRYEYTANPGERVEVEVSPEELKNLRVRLEYDGKTEETQYS
notes: De novo designed immunoglobulin-like domain; not shown: N-terminal thrombin-cleavable His6-tag encoded by pET-28b+
As to B1, the binding result in series [1] is reported as “binds”.

B2: dIG23 (other)
chain: DLEVRRKDGKFEFRNNSDKPATLEVEKDGQREEYRMNPGETIEVQAPPGQDVRFTVEMPGREYRYKLD
notes: as for B1
Consider B2, for which, in series [1], the binding result is on record as “binds”.

B3: dIG14 (other)
chain: MGRVEVRVEFEGDKMRVRLRNDSSTPVEVHIKVGDEKRTVTVNPGEEVEVTFSANDPHKFNRPQFTIEWGGQRQHFQHHHHHH
notes: De novo designed immunoglobulin-like domain; Built here as the crystallization construct (pET28*-dIG14); it may instead be the pET-28b+ form with an N-terminal thrombin-cleavable His6-tag; also called designed ImmunoGlobulin 14
Regarding B3, the binding result in series [1] is recorded as “binds”.

B4: dIG22 (other)
chain: SIEVRVKGDRYEFRNNSDKPATLEVEKNGKREEYHMNPGESVEVRGPPGQDIRFEMTMDGTTYRYRLS
notes: as for B1
On to B4, for which the binding result in series [1] is recorded as “binds”.

B5: dIG21 (other)
chain: SIEVRVKGDRYEFRNNSDKPATLEVEKNGKREEYHMNPGESVEVRGEPGQDIRFEMVMEGTTYRYRLS
notes: as for B1
With B5, the binding result in series [2] was “no binding”.

B6: dIG8-CC (other)
chain: GHMRIEVRVDNGRVRVRNGTDRPCRVRVTAGGETREYTVNPGTELEVELSPEQQNNAEVEVECGNEKYRFQLG
modifications: C21 and C60 found both disulfide-linked and unbound in the crystals
notes: De novo designed immunoglobulin-like domain, double mutant of dIG8; Built as the untagged crystallization construct; also called dIG8-CC (V21C, V60C)
B6: the binding result in series [3] is “binds”.

B7: dIG8 (other)
chain: RIEVRVDNGRVRVRNGTDRPVRVRVTAGGETREYTVNPGTELEVELSPEQQNNAEVEVEVGNEKYRFQLG
notes: De novo designed immunoglobulin-like domain; also called parental dIG8; not shown: N-terminal hexa-histidine tag and thrombin cleavage site from pET-28b+ (adds 2.3 kDa)
Turning to B7, the binding result in series [3] is “binds”.

B8: dIG14-scdim (other)
chain: GRVEVRVEFEGDKMRVRLRNDSSTPVEVHIKVGDEKRTVTVNPGEEVEVTFSANDPHKFNRPQFTIEWGGGGRVEVRVEFEGDKMRVRLRNDSSTPVEVHIKVGDEKRTVTVNPGEEVEVTFSANDPHKFNRPQFTIEWG
notes: Two 6-stranded dIG14 domains (X1-X13) fused by a diglycine linker; also called single-chain dimer; dIG14-scdim designed with a GG linker
For the protein B8, in series [4], the binding result is recorded as “no binding”.

B9: dIG15 (other)
chain: RPKVQLELHGNKMRVRLRNDSSTPVEVHIKVGDEKRTVTVNPGEEVEVTFSTTDPRELKNATIQLHQGDQTVEYRVD
notes: as for B1
B9: the binding result in series [1] is given as “binds”.
